Test system: MS2 coat protein
Assay: apparent KD of MS2 coat protein; designed switch direction (-1 OFF switch, 1 ON switch): 1; higher = weaker reporter binding
How it was run: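 RNA switches sharing common flanks were transcribed by stalled E. coli RNA polymerase on Illumina chips. A doubling series of SNAP-549-labelled MS2 coat protein, from 0.7 or 1.5 nM to 3 µM, was applied in Tris-HCl pH 7.5 buffer with KCl, MgCl2, BSA, DTT, tRNA and Tween-20. Each step lasted 0.8–1.5 h at the bottom of the series and 10–20 min at the top. Normalised cluster fluorescence was curve-fitted, giving apparent KD as the per-design median over clusters.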

[1] = Eterna round: R95, input ligand: FMN 200 uM
[2] = Eterna round: R95, input ligand: microRNA oligo, concentration not stated
[3] = Eterna round: R95, input ligand: none
[4] = input ligand: microRNA oligo, concentration not stated

GGUCCAGCCUGAGCUGGACAAAAGCAUGUACAUGAGGAUCACCCAUGUCAUGUACAAGCUUUUUGCUCGUCAUAAAU [Mat - hsa-mir-208a - 96] (puzzle: Sensor for hsa-mir-208a)
apparent KD of MS2 coat protein [1]: 702 nM
apparent KD of MS2 coat protein [2]: 13.1 nM
apparent KD of MS2 coat protein [3]: 668 nM

AAGAAGACGAACAAGGAUAUGUCAAAGGAAACAUGAGGAUCACCCAUGUAGAGAUUGGAAAAGAAACAGAAGGUGUACAGAGAGA [JR_SS2_Sub006] (puzzle: Same State 2)
apparent KD of MS2 coat protein [1]: 18.7 nM
apparent KD of MS2 coat protein [2]: 33.2 nM
apparent KD of MS2 coat protein [3]: 24.5 nM

CCAAAGUACAAUUUAGAUCUACAUGAGGAUCACCCAUGUACUGAGGAUAUCAGCUCGUUUAGAGCUGAGAAGGCAGAAUUAAUU [SSNG3/4-A3] (Eterna round: R96, puzzle: Same State NG 3)
apparent KD of MS2 coat protein (input ligand: FMN 200 uM): 135 nM
apparent KD of MS2 coat protein [4]: 111 nM
apparent KD of MS2 coat protein (input ligand: none): 224 nM

UGAACCGUCACAGGAUAUCAUGCGAAAAUUGCGUGAGAAGGGUGGAUGUUGUGUUCAAAGUUAUACAUGAGGAUCACCCAUGUU [SameState NG1 #46] (Eterna round: R96, puzzle: Same State NG 1)
apparent KD of MS2 coat protein (input ligand: FMN 200 uM): 29.8 nM
apparent KD of MS2 coat protein [4]: 45.8 nM
apparent KD of MS2 coat protein (input ligand: none): 65.5 nM

CAGCGCUGUCGAGAGGAUAUGCGGUGAUGGACAUGAGGAUCACCCAUGUUAGCGACAGCAUCACGGCAGAAGGCUCUACCCGCUG [Soteed Omei mod 44] (puzzle: Same State 2)
apparent KD of MS2 coat protein [2]: 10.6 nM

CAUCGUUUGAUAGGAUAUCGCUAUACAUGAGGAUCACCCAUGUUUACCACGCUGGUUUUUCAUACCGAGAAGGAUUCUGAUGUU [salish99_SSNG02_r04_015] (Eterna round: R96, puzzle: Same State NG 2)
apparent KD of MS2 coat protein (input ligand: FMN 200 uM): 36 nM
apparent KD of MS2 coat protein [4]: 25.2 nM
apparent KD of MS2 coat protein (input ligand: none): 38.6 nM

UCUUGGUUUUUGCUCGUUUUUUGUGUUGAACAUGAGGAUCACCCAUGUAUUGUACAGUCCAAUUUAAUAAUGGUCCA [JMF 4] (puzzle: Sensor for hsa-mir-208a)
apparent KD of MS2 coat protein [1]: 34.2 nM
apparent KD of MS2 coat protein [2]: 27.9 nM
apparent KD of MS2 coat protein [3]: 41.6 nM

GUUAUACAUGAGGAUCACCCAUGUCAAUGUAGUCGAGGAUAUGGGUUGCUAUGAGGCGUACUAGAAGGCGAGGAGU [JL-ss1-3.17 ViennaUCT mod] (puzzle: Same State 1)
apparent KD of MS2 coat protein [1]: 297 nM
apparent KD of MS2 coat protein [2]: 98.8 nM
apparent KD of MS2 coat protein [3]: 265 nM

AGAGGAGGAGCAGGAUAUUCGACGGAGGACGUGGAAGAAGGGUUCAUGCGAUGACAUGAGGAUCACCCAUGUACCGCGCGUCGA [AK SSNG1-V2-15.1] (Eterna round: R96, puzzle: Same State NG 1)
apparent KD of MS2 coat protein (input ligand: FMN 200 uM): 143 nM
apparent KD of MS2 coat protein [4]: 106 nM
apparent KD of MS2 coat protein (input ligand: none): 478 nM

GGUGCCAAAUAAGCCUACAUGAGGAUCACCCAUGUAUGUAGGUAGGAUAUCGUAUGCAAAGCAUACGAGAAGGGCCUAGGCACC [Mat - Same State NG 3 - JL Mod - D60] (Eterna round: R96, puzzle: Same State NG 3)
apparent KD of MS2 coat protein (input ligand: FMN 200 uM): 18.1 nM
apparent KD of MS2 coat protein [4]: 37.3 nM
apparent KD of MS2 coat protein (input ligand: none): 60.7 nM

UUUAGGAGUCAAGGAUAUGCUACCGUUUCGGUAGCAGAAGGUGAUCACAUGAGGAUCACCCAUGUAUGCAUGCGUGAGCGUGCU [JL SSNG1 3.62] (Eterna round: R96, puzzle: Same State NG 1)
apparent KD of MS2 coat protein [4]: 24.1 nM

GAGGGCGAAAGCAACAUGAGGAUCACCCAUGUUGUCGGAGGGCAGGAUAUCCGGCGAAAGCAGAAGGAGAAGGGUCGAAAAGAA [AK SSNG3-V2-39] (Eterna round: R96, puzzle: Same State NG 3)
apparent KD of MS2 coat protein (input ligand: FMN 200 uM): 15.5 nM
apparent KD of MS2 coat protein [4]: 13.1 nM
apparent KD of MS2 coat protein (input ligand: none): 21.4 nM

GAGGGACAGACCAACAUGAGGAUCACCCAUGUCCUCGCAGGUCAGGAUAUUAUGAGGAUCACCCGUGAGAAGGGACGGUGAACC (Eterna round: R96, puzzle: Same State NG 3)
apparent KD of MS2 coat protein (input ligand: FMN 200 uM): 606 nM
apparent KD of MS2 coat protein [4]: 468 nM
apparent KD of MS2 coat protein (input ligand: none): 488 nM

Reference: the supplement of paper PMC9170038
